# Test results from publication PMC11151596, “Improving the enzymatic activity and stability of N-carbamoyl hydrolase using deep learning approach” (Microbial Cell Factories, 2024).
# Substrate: NC(=O)NC(C(=O)O)c1ccc(O)cc1
# Assay: HPLC of D-HPG formed, double reciprocal plot
# Assay type: biochemical, Agrobacterium sp. KNK712
# Details: 50 mM Tris-HCl pH 7.5, 65 °C, 0.1-10.0 mM CpHPG
# Excerpt: HPLC of D-HPG formed, double reciprocal plot on DCase (N-carbamoyl-D-amino acid amidohydrolase, EC 3.5.1.77; N-carbamoyl hydrolase)
protein,measurement,value
"DCase (N-carbamoyl-D-amino acid amidohydrolase, EC 3.5.1.77; N-carbamoyl hydrolase) (Agrobacterium sp. KNK712) (protein, pET-28a(+)-Case, N- and C-terminal His6 tags, expressed in E. coli BL21(DE3), Ni-NTA purified, about 37 kDa) MTRQMILAVGQQGPIARAETREQVVVRLLDMLTKAASRGANFIVFPELALTTFFPRWHFTDEAELDSFYETEMPGPVVRPLFEKAAELGIGFNLGYAELVVEGGVKRRFNTSILVDKSGKIVGKYRKIHLPGHKEYEAYRPFQHLEKRYFEPGDLGFPVYDVDAAKMGMFICNDRRWPEAWRVMGLRGAEIICGGYNTPTHNPPVPQHDHLTSFHHLLSMQAGSYQNGAWSAAAGKVGMEENCMLLGHSCIVAPTGEIVALTTTLEDEVITAAVDLDRCRELREHIFNFKQHRQPQHYGLIAEL",Km,2590 ± 220 µM
same,kcat,7.98 ± 0.212 s⁻¹
same,kcat/Km,3080 ± 218 M⁻¹ s⁻¹
